Experiments:
LPA3 receptor = biological target: T1, LPA3 receptor (Homo sapiens, UniProt Q9UBY5); experiment: Intracellular cAMP level in LPA3-expressing B103 cells; assay type: cell-based
T1 construct: host or cells: B103 rat neuroblastoma cells
T1 sequence (Q9UBY5 1-353): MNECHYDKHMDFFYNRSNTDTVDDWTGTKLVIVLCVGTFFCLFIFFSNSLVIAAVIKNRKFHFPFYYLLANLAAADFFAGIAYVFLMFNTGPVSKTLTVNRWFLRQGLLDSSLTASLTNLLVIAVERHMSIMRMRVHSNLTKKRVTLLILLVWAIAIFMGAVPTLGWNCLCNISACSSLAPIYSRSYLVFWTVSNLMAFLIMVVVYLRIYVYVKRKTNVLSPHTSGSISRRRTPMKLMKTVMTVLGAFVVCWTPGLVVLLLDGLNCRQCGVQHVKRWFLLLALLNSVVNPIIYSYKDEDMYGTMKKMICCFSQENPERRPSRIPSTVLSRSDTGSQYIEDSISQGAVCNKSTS
From the text: After treatment with gintonin, B103 cells expressing LPA3 or LPA6 receptor were examined for change in intracellular cAMP level.

endogenous CaCC = conditions: Xenopus oocytes; Pyo et al. 2011; cited from earlier work
mice = experiment: Busulfan-caused diarrhea and mucositis in mice; assay type: in vivo, mouse; conditions: for Diarrhea (cases / mice) / Mucositis (cases / mice): gintonin 100 mg/kg oral 3 days before, observed 10 days
Protocol: In this Example, an examination was made of the inhibitory activity of gintonin against chemotherapy-induced diarrhea and mucositis. For this, gintonin-treated mice were administered with busulfan, and observed for diarrhea and mucostitis.
Briefly, mice were orally administered at a dose of 100 mg/kg with gintonin 3 days before intraperitoneal injection with busulfan (40 mg/kg). For the control, physiological saline was used, instead of gintonin.

rat hippocampal slices = experiment: Long-term potentiation (LTP) in rat hippocampal slices, theta burst stimulation; conditions: after TBS, n=4
Protocol: Since agintonin induces NMDA receptor activation as confirmed above, an examination was made of the effect of gintonin on LTP induction in rat hippocampal slices (Moon et al., Neursci. Lett. 466, 114-119, 2009; Lee et al., J Neurosci. Res. 89, 96-107, 2011). In this regard, LTP induction was studied after treatment with three different concentrations of gintonin (0.1, 1, and 10 μg/ml).
Male rats 3-5 weeks old (Sprague-Dawley strain) (Charls River, U.S.A.) were quickly sacrificed by cervical dislocation without using an anesthetic (Steidl et al., Brain Res. 1096, 70-84, 2006). With the aid of a rongeur (Fine Science Tools Inc., USA), the cranium was removed, and the brain was excised, immediately cooled in ice, and immersed in artificial cerebrospinal fluid (saCSF) containing oxygen-saturated (95% O2/5% CO2) sucrose (composition mM: Sucrose 248, NaHCO3 26, glucose 10, KCl 3, CaCl2 2, MgCl2 1, HEPES 10, pH7.4).
The hippocampus was sectioned into 400 μm slices using vibratome (MA752 motorised advance vibroslice; Campden inc.) and the hippocampal slices were stabilized in artificial cerebrospinal fluid (aCSF) (composition mM: […], NaHCO326, Glucose 10, KCl 3, CaCl2 2, MgCl2 1, HEPES 10, pH 7.4) for 1 hr (Lelong and Rebel, J Pharmacol Toxicol Methods. 39, 203-210, 1998).
OHSCs were incubated according to the Stoppini method (Stoppini et al., J Neurosci Methods 37, 173-182, 1991), and all procedures were conducted on a sterilized bench.
Immediately after excision from the cranium, the rat brain was immersed in an ice-cold HBSS-medium (LB 003-01, Sigma, St. Louis, Mo., USA), and the hippocampus was separated and sectioned at a thickness of 400 μm using a tissue chopper (Mickle Laboratory Engineering Co., Surrey, UK). The hippocampal slices were placed on a membrane insert (polytetrafluorethlene membranes, 0.4 μm Millicell-CM, Millipore Co., Bedford, Mass., USA), and immersed in a culture medium. […]

[1] = busulfan 40 mg/kg i.p., gintonin 100 mg/kg oral
[2] = busulfan 40 mg/kg i.p., listed as Gintonin + Busulfan

B1: gintonin: ginseng-derived glycolipoprotein; structural protein of ginseng major latex-like protein (MLP151) and ribonuclease-like storage proteins; crude gintonin used in tests (protein)
chain 1: MGLTGKLICQTGIKSDGDVFHELFGTRPHHVPNITPANIQGCDLHEGEFGKVGSVVIWNYSIDGNAMIAKEEIVAIDEEDKSVTFKVVEGHLFEEFKSIVFSVHVDTKGEDNLVTWSIDYEKLNESVKDPTSYLDFLLSVTRDIEAHHLPK
chain 2: RSDYPWAMFALRLQWPAGFCEVNNACDTKSLLNTFTIHGLYPYNAKGTPALYCDGTAFDVNSVSDFLAEMHLAWPSHETNTEDIQFWEHEWKKHGRCSEALLKQTDYFRTALAFRKAFDIVGLLNQEGIYPNNDLYRPKMIKEAIKKHLNAVPEIDFTKNENSEYVLTDINVCVNQQATRFVDCPTDDATDDYRLKFVRLPSKMKFADPRTNSII
LPA3 receptor
  change in intracellular cAMP level: no influences on intracellular cAMP level
Endogenous CaCC
  CaCC activation: activate endogenous Ca^2+-activated channel (CaCC)
mice; [1]
  diarrhea morbidity rate: 20%
  perianal mucositis morbidity: 13.3%
mice; busulfan 40 mg/kg i.p.
  Diarrhea (cases / mice): 3
  Mucositis (cases / mice): 2
mice; [2]
  Diarrhea (cases / mice): 3/15
  Mucositis (cases / mice): 2/15
mice; gintonin 100 mg/kg oral
  inhibition of busulfan-caused perianal mucositis: 33.4%
  reduction of busulfan-caused diarrhea: more than 30%
Rat hippocampal slices; gintonin 0.1 μg/ml
  total field excitatory postsynaptic potentials (total fEPSPs): 180.90±7.53%
Rat hippocampal slices; gintonin 1 μg/ml
  total field excitatory postsynaptic potentials (total fEPSPs): 205.32±6.40%
Rat hippocampal slices; gintonin 10 μg/ml
  total field excitatory postsynaptic potentials (total fEPSPs): 214.14±11.55%

Reference: patent publication US20140234868A1, “USE FOR GLYCOLIPOPROTEIN GINTONIN, ISOLATED AND IDENTIFIED FROM GINSENG, AS A NATURAL MEDICAL-PLANT DERIVED LIGAND” (KONKUK UNIVERSITY INDUSTRIAL COOPERATION CORP., priority 2011, published 2014)
